Data on 1 substance can be found in patent publication US20240336663.

Series [1] has as its system ZFR11 (Zinc Finger 11-HP1a-KRAB) (synthetic). Nature of the series: cell_activity. Conditions: N2A cells, transfection, qPCR; indirect (repression); text labels ZFR11 as SEQ 10 but the listing gives Zinc Finger 11-HP1a-KRAB as SEQ 11.
Series [2] relates to ZFR3 (Zinc Finger 3-HP1a-KRAB) (synthetic). Nature of the series: cell_activity. As to conditions: N2A cells, transfection, qPCR; indirect (repression); text labels ZFR3 as SEQ 11 but the listing gives Zinc Finger 3-HP1a-KRAB as SEQ 10.
Chain of ZFR3 (Zinc Finger 3-HP1a-KRAB) (synthetic) (chain, as listed by the source): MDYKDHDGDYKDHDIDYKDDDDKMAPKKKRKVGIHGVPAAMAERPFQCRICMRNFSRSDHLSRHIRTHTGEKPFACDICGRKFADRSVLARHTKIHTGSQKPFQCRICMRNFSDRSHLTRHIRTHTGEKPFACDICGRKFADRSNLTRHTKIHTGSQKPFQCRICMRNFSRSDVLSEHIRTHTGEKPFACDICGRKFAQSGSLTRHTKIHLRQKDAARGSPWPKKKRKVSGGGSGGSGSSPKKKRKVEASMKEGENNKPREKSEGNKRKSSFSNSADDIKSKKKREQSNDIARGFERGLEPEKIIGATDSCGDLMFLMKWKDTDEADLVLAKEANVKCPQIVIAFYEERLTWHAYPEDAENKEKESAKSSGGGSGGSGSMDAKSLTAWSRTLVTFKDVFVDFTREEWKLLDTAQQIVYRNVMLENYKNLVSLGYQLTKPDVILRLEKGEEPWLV

Chain of ZFR11 (Zinc Finger 11-HP1a-KRAB) (synthetic) (chain, as listed by the source): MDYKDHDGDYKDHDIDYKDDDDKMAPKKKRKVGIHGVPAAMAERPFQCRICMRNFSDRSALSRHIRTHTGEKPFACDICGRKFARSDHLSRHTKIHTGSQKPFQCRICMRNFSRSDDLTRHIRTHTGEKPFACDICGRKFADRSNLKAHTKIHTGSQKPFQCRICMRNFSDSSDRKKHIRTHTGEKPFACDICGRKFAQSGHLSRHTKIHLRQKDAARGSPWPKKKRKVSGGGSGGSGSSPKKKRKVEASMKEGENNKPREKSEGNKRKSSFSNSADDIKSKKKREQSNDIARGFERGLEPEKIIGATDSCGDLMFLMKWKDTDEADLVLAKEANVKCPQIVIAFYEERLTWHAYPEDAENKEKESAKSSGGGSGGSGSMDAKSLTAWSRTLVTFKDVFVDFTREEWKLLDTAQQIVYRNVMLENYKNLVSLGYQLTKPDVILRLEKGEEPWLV

“mouse Myd88 promoter target region (20 nt target of each ZF not individually printed)”: the figures for the relative Myd88 expression (fold Myd88 expression) in series [1] and in series [2] were 0.21 and 0.22, respectively.
